# Non-standard residues stand in square brackets, D forms with d. No end group written: not given here. pT = C[C@@H](OP(=O)(O)O)[C@H](N)C(=O)O; pS = N[C@@H](COP(=O)(O)O)C(=O)O
# Key:
# [1] = biological target: T1, HLA-A*0201 (human); test: competition with iodinated [..] for purified HLA-A*0201 plus β2M, capture on W6/32 plates
# T1 construct: also called HLA-A2
# [2] = biological target: T1, HLA-A*0201; test: HLA-A2 binding affinity
# [3] = biological target: T1, HLA-A*0201; test: competition binding assay on purified HLA-A*0201
# [4] = biological target: T2, HLA-B*0702 (human); test: HLA-B7 eluate MS; ALL1; 2 means 1-5 copies/cell
# T2 construct: also called HLA-B7
# [5] = biological target: T2, HLA-B*0702; test: HLA-B7 eluate MS; ALL1; 4 means >25 copies/cell
# [6] = biological target: T2, HLA-B*0702; test: HLA-B7 eluate MS; AML1; 4 means >25 copies/cell
# [7] = biological target: T1, HLA-A*0201; test: HLA-A2 binding affinity, method not described
# [8] = biological target: T3, HLA B*0702 (human); test: MS of peptides eluted from HLA; L/M column: empty
# T3 construct: Class I MHC molecule of the cells from which the associated phosphopeptides were detected; also called HLA-B7
# [9] = biological target: T3, HLA B*0702; test: MS of peptides eluted from HLA; L/M column: M
# [10] = biological target: T1, HLA-A*0201; test: MS of HLA-A*0201 (BB7.2) eluate; cultured melanocytes; ++ means 5-50 copies/cell
# [11] = biological target: T2, HLA-B*0702; test: HLA-B7 eluate MS; ALL1; 3 means 6-25 copies/cell
# [12] = biological target: T1, HLA-A*0201; test: HLA-A2 eluate MS; CLL2; 1 means <1 copy/cell
# [13] = biological target: T1, HLA-A*0201; test: not described
# [14] = biological target: T1, HLA-A*0201; test: MS of HLA-A*0201 (BB7.2) eluate; cultured melanocytes; +++ means 50-500 copies/cell
# [15] = biological target: T1, HLA-A*0201; test: HLA-A2 eluate MS; CLL4; 1 means <1 copy/cell
# [16] = biological target: T3, HLA B*0702; test: MS of peptides eluted from HLA; L/M column: L/M
# [17] = biological target: T2, HLA-B*0702; test: HLA-B7 eluate MS; AML1; 3 means 6-25 copies/cell
binder,measurement,setting,value
"YLD[pS]GIHSGA (also called pS33-βcatenin30-39; YLDsGIHSGA) [pS33-βcat30 (YLD(pS)GIHSGA, β-catenin 30-39 with phosphoserine 33)]",IC50,[1],0.327 µg/mL
YLD[pS]GIHSGV (also called pS33-βcatenin30-39(V); modified phosphopeptide) [pS33-βcat(V)30 (YLDsGIHSGV)],fold enhancement of HLA-A2 binding affinity over pS33-βcatenin30-39,[2],~10 fold
same,fold higher HLA-A*0201 binding affinity than pS33-βcat30,[3],8 fold
same,IC50,[1],0.041 µg/mL
RSL[pS]PLLF [VPS13D phosphopeptide RSLsPLLF],binding result,[4],binds
KPR[pS]PVVEL (also called Beta-Adrenergic receptor kinase 1) [GRK2 phosphopeptide KPRsPVVEL],binding result,[4],binds
RPV[pT]PVSDL [KLF10 phosphopeptide RPVtPVSDL],binding result,[5],binds
RPR[pS]PTGP (also called Splicing factor 45) [RBM17 phosphopeptide RPRsPTGP],binding result,[6],binds
FRR[pS]PTKSSLDY [RBM14 phosphopeptide FRRsPTKSSLDY],binding result,[6],binds
IMDR[pT]PEKL (also called natural BCAR3pT130) [BCAR3 phosphopeptide IMDRtPEKL],binding result,[7],binds
SPRR[pS]RSISL [SFRS7 phosphopeptide SPRRsRSISL],binding result,[6],binds
RPV[pS]PFQEL [RPVsPFQEL],binding result,[8],binds
RPA[pS]PAAKL [RPAsPAAKL],binding result,[9],binds
RLL[pS]PLSSA (also called RAVER1) [phosphopeptide RLLpSPLSSA (source protein Unknown in Table 5)],binding result,[10],binds
RPP[pS]PGPVL [SCAP phosphopeptide RPPsPGPVL],binding result,[4],binds
RPD[pS]RLGKTEL [SETD2 phosphopeptide RPDsRLGKTEL],binding result,[4],binds
RPKPSS[pS]PV [PCBP2 phosphopeptide RPKPSSsPV],binding result,[4],binds
RPP[pS]SEFLDL [RERE phosphopeptide RPPsSEFLDL],binding result,[11],binds
KAK[pS]PAPGL [NCOR2 phosphopeptide KAKsPAPGL],binding result,[12],binds
KPPH[pS]PLVL [MYC phosphopeptide KPPHsPLVL],binding result,[5],binds
KPP[pT]PGASF [SPEN phosphopeptide KPPtPGASF],binding result,[11],binds
RQD[pS]TPGKVFL (also called NR2C1) [Nuclear hormone receptor TR2 phosphopeptide RQDpSTPGKVFL],binding result,[10],binds
RVA[pS]PTSGVKR [IRS2 phosphopeptide RVApSPTSGVKR],binding result,[13],no binding
RQI[pS]QDVKL (also called AMPD2) [Adenosine monophosphate deaminase 2 phosphopeptide RQIpSQDVKL],binding result,[10],binds
RPAK[pS]MDSL [ARHGAP30 phosphopeptide RPAKsMDSL],binding result,[4],binds
RVA[pS]PTSGVK (also called RVAk) [IRS2 phosphopeptide RVAsPTSGVK],binding result,[13],no binding
RAP[pS]PSSRM [SRRM2 phosphopeptide RAPsPSSRM],binding result,[5],binds
RQL[pS]SGVSEI (also called HSPB1) [Heat shock protein 27 (HSP27) phosphopeptide RQLpSSGVSEI],binding result,[14],binds
RTF[pS]PTYGL (also called SYNM; pS429-β-Synemin426-434) [β-Synemin phosphopeptide RTFpSPTYGL],binding result,[10],binds
RPV[pS]PFQEL [phosphopeptide RPVsPFQEL (no gene name in Table 7; no database hit)],binding result,[11],binds
RPY[pS]PPFFSL [FAM53C phosphopeptide RPYsPPFFSL],binding result,[4],binds
KMD[pS]FLDMQL [N4BP2 phosphopeptide KMDsFLDMQL],binding result,[15],binds
RPQRA[pT]SNVF [MYL9 phosphopeptide RPQRAtSNVF],binding result,[5],binds
FSI[pS]PVRL [SON phosphopeptide FSIsPVRL],binding result,[5],binds
SPRR[pS]RSISL [SPRRsRSISL],binding result,[16],binds
QPR[pS]PGPDYSL [GFI1 phosphopeptide QPRsPGPDYSL],binding result,[17],binds
RPA[pS]ARAQPGL [RPAsARAQPGL],binding result,[16],binds
"RLS[pS]PLHFV (also called Protein FAM134A) [ORF 17, chromosome 2 phosphopeptide RLSpSPLHFV]",binding result,[14],binds
KPR[pS]PVVEL [KPRsPVVEL],binding result,[16],binds
RRK[pS]QVAEL [MKI67IP phosphopeptide RRKsQVAEL],binding result,[6],binds
RPA[pS]AGAML [MEF2D phosphopeptide RPAsAGAML],binding result,[5],binds
RPA[pS]PAAKL [KIAA1310 phosphopeptide RPAsPAAKL],binding result,[4],binds
YLD[pS]GIH[pS]GA (also called pS33/pS37-βcat30; pS33/37-βcat30) [pS33/S37-βcat30 (doubly phosphorylated β-catenin 30-39)],IC50,[1],0.678 µg/mL
KPY[pS]PLASL [NFATC2 phosphopeptide KPYsPLASL],binding result,[4],binds

# Reference: US20150224182A1 (UNIVERSITY OF VIRGINIA PATENT FOUNDATION, published 2015)
